# Experimental data published in paper PMC9896810, “Crk proteins activate the Rap1 guanine nucleotide exchange factor C3G by segregated adaptor-dependent and -independent mechanisms” (Cell Communication and Signaling : CCS, 2023).
# Values joined by “and” are separate entries in the source; they are usually repeats but may differ in a detail not shown here. Identical values can stand only once.
# T1: C3G (full-length, residues 4-1077) (human, UniProt Q13905-1 4-1077)
# T1 construct: also called C3G WT; RapGEF1; source: E. coli BL21 (DE3), purified (IMAC, TEV digestion, reversed IMAC, SEC); not shown: His, N-terminal, cleaved; Halo, N-terminal, cleaved
# T1 sequence (looked up): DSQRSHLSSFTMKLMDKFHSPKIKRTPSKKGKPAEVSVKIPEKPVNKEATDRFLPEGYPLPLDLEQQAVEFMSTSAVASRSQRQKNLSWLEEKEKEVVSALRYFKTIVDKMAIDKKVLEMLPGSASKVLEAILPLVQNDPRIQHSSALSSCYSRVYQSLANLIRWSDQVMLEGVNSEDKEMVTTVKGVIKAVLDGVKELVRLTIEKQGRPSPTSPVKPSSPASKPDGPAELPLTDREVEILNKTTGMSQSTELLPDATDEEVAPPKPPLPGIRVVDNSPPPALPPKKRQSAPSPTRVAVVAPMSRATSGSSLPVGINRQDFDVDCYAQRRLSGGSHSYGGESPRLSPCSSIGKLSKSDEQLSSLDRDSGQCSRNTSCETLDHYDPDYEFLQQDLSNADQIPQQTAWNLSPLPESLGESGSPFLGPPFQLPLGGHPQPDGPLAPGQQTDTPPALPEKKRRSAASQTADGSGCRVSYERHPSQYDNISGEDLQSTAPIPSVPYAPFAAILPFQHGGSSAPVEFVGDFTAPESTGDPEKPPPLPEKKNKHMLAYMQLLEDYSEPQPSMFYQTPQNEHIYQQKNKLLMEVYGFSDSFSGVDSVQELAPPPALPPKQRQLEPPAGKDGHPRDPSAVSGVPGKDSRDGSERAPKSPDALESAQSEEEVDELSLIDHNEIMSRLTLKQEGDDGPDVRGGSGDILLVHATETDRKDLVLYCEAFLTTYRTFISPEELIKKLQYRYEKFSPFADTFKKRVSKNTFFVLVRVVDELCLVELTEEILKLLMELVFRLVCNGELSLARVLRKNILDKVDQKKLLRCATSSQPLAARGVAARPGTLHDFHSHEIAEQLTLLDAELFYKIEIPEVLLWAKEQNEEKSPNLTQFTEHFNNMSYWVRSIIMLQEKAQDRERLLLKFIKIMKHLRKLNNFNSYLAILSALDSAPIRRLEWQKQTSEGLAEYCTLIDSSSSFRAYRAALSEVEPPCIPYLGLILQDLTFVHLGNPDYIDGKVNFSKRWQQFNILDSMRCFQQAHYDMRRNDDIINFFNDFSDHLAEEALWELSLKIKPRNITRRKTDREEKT
# What was measured:
# [1] = target: T1, C3G (full-length, residues 4-1077); assay: ITC; C3G in the cell titrated with CrkL in the syringe, 25 °C, 300 mM NaCl, pH 7.5; each titration analysed individually with Origin ITC, independent-site model; conditions: both partners purified
# [2] = target: T1, C3G (full-length, residues 4-1077); assay: ITC; C3G or pC3G in the cell titrated with the Crk protein, 25 °C, 300 mM NaCl, pH 7.5; global fit of three titrations with SEDPHAT, three symmetric binding sites, microscopic kd; conditions: both partners purified
Binder,Kd [1] [nM],stoichiometry N [1],Kd [2] [nM]
"CrkL (full-length) (natural protein, human, UniProt P46109 1-303, looked up, human CrkL, residues 1-303, in pETEV15b; also called Crk-like protein; source: E. coli BL21 (DE3), purified (IMAC, TEV digestion, SEC); not shown: His, N-terminal, cleaved) MSSARFDSSDRSAWYMGPVSRQEAQTRLQGQRHGMFLVRDSSTCPGDYVLSVSENSRVSHYIINSLPNRRFKIGDQEFDHLPALLEFYKIHYLDTTTLIEPAPRYPSPPMGSVSAPNLPTAEDNLEYVRTLYDFPGNDAEDLPFKKGEILVIIEKPEEQWWSARNKDGRVGMIPVPYVEKLVRSSPHGKHGNRNSNSYGIPEPAHAYAQPQTTTPLPAVSGSPGAAITPLPSTQNGPVFAKAIQKRVPCAYDKTALALEVGDIVKVTRMNINGQWEGEVNGRKGLFPFTHVKIFDPQNPDENE",3300,3.2 and 2.8 and 2.9,
"CrkL-SH3N (domain or fragment, human, UniProt P46109 125-182, looked up, human CrkL, SH3N domain, residues 125-182, in pETEV15b; source: E. coli BL21 (DE3), purified (IMAC, TEV digestion, SEC); not shown: His, N-terminal, cleaved) LEYVRTLYDFPGNDAEDLPFKKGEILVIIEKPEEQWWSARNKDGRVGMIPVPYVEKLV",,,1600
